Assay results published in the supplement of paper PMC10567573.

B1: RAB40B (parent)
chain: YSLTTSSTHKRSSLRKVKLVRPPQ
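Further: lentivirally expressed fusions sorted by FACS into six bins by GFP to DsRed ratio, PSI derived from sequencing read proportions per bin multiplied by bin number.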

Variants of: B1
Experiment: protein stability index of a GFP-peptide fusion (GPS, HEK-293T) (PSI 1-6); higher = more stable
Conditions: c terminus: a fixed tail appended
With YSLTTSSTHKRSSSRKVKLVRPPQ [L14S] the protein stability index was 3.5. For YSLTTSSTHKRSSWRKVKLVRPPQ [L14W], the protein stability index was 2.38. With YSLTTSSTHKRSSCRKVKLVRPPQ [L14C] the protein stability index was 2.6. YSLTTSSTHKRSSFRKVKLVRPPQ [L14F] gave a protein stability index of 2.62. With YSLTTSSTHKRSSPRKVKLVRPPQ [L14P] the protein stability index was 3.86. YSLTTSSTHKRSSKRKVKLVRPPQ [L14K] showed a protein stability index of 3.37. Work on YSLTTSSTHKRSSVRKVKLVRPPQ [L14V] yielded a protein stability index of 3.25. YSLTTSSTHKRSSQRKVKLVRPPQ [L14Q] showed a protein stability index of 3.98. In the case of YSLTTSSTHKRSSMRKVKLVRPPQ [L14M], the protein stability index is reported as 2.64. In the case of YSLTTSSTHKRSSHRKVKLVRPPQ [L14H], the protein stability index is reported as 3.46. YSLTTSSTHKRSSGRKVKLVRPPQ [L14G] showed a protein stability index of 3.79. YSLTTSSTHKRSSNRKVKLVRPPQ [L14N] gave a protein stability index of 3.77. Work on YSLTTSSTHKRSSYRKVKLVRPPQ [L14Y] yielded a protein stability index of 3.06. With YSLTTSSTHKRSSDRKVKLVRPPQ [L14D] the protein stability index was 3.83. Variant YSLTTSSTHKRSSIRKVKLVRPPQ [L14I] has a protein stability index of 3.37. Variant YSLTTSSTHKRSSERKVKLVRPPQ [L14E] has a protein stability index of 3.82. In the case of YSLTTSSTHKRSSTRKVKLVRPPQ [L14T], the protein stability index is reported as 3.87. For YSLTTSSTHKRSSARKVKLVRPPQ [L14A], the protein stability index was 3.68. In the case of YSLTTSSTHKRSSRRKVKLVRPPQ [L14R], the protein stability index is reported as 3.69. Work on YSLTTSSTHKRSSLRWVKLVRPPQ [K16W] yielded a protein stability index of 2.14. Work on YSLTTSSTHKRSSLRQVKLVRPPQ [K16Q] yielded a protein stability index of 3.08. For YSLTTSSTHKRSSLRSVKLVRPPQ [K16S], the protein stability index was 2.93. Work on YSLTTSSTHKRSSLRGVKLVRPPQ [K16G] yielded a protein stability index of 2.81. Work on YSLTTSSTHKRSSLRFVKLVRPPQ [K16F] yielded a protein stability index of 2.13. Variant YSLTTSSTHKRSSLRVVKLVRPPQ [K16V] has a protein stability index of 2.1. In the case of YSLTTSSTHKRSSLREVKLVRPPQ [K16E], the protein stability index is reported as 3.52. In the case of YSLTTSSTHKRSSLRTVKLVRPPQ [K16T], the protein stability index is reported as 3.03. For YSLTTSSTHKRSSLRLVKLVRPPQ [K16L], the protein stability index was 2.35. In the case of YSLTTSSTHKRSSLRAVKLVRPPQ [K16A], the protein stability index is reported as 2.93. In the case of YSLTTSSTHKRSSLRNVKLVRPPQ [K16N], the protein stability index is reported as 3.19. YSLTTSSTHKRSSLRPVKLVRPPQ [K16P] showed a protein stability index of 3.06. Variant YSLTTSSTHKRSSLRDVKLVRPPQ [K16D] has a protein stability index of 3.59. For YSLTTSSTHKRSSLRRVKLVRPPQ [K16R], the protein stability index was 2.99. With YSLTTSSTHKRSSLRHVKLVRPPQ [K16H] the protein stability index was 2.54. In the case of YSLTTSSTHKRSSLRIVKLVRPPQ [K16I], the protein stability index is reported as 1.95. With YSLTTSSTHKRSSLRMVKLVRPPQ [K16M] the protein stability index was 2.35. With YSLTTSSTHKRSSLRCVKLVRPPQ [K16C] the protein stability index was 2.58. In the case of YSLTTSSTHKRSSLRYVKLVRPPQ [K16Y], the protein stability index is reported as 2.9. With YSLTTSSTHKRTSLRKVKLVRPPQ [S12T] the protein stability index was 3.07. YSLTTSSTHKRQSLRKVKLVRPPQ [S12Q] showed a protein stability index of 3.71. Work on YSLTTSSTHKRPSLRKVKLVRPPQ [S12P] yielded a protein stability index of 3.15. YSLTTSSTHKRYSLRKVKLVRPPQ [S12Y] gave a protein stability index of 2.85. Variant YSLTTSSTHKRMSLRKVKLVRPPQ [S12M] has a protein stability index of 2.63. YSLTTSSTHKRLSLRKVKLVRPPQ [S12L] showed a protein stability index of 2.33. With YSLTTSSTHKRESLRKVKLVRPPQ [S12E] the protein stability index was 3.07. YSLTTSSTHKRKSLRKVKLVRPPQ [S12K] gave a protein stability index of 3.83. With YSLTTSSTHKRDSLRKVKLVRPPQ [S12D] the protein stability index was 3.71. With YSLTTSSTHKRWSLRKVKLVRPPQ [S12W] the protein stability index was 2.23. With YSLTTSSTHKRRSLRKVKLVRPPQ [S12R] the protein stability index was 3.32. YSLTTSSTHKRHSLRKVKLVRPPQ [S12H] gave a protein stability index of 3.16. For YSLTTSSTHKRCSLRKVKLVRPPQ [S12C], the protein stability index was 2.41. In the case of YSLTTSSTHKRASLRKVKLVRPPQ [S12A], the protein stability index is reported as 2.97. Work on YSLTTSSTHKRVSLRKVKLVRPPQ [S12V] yielded a protein stability index of 2.57. YSLTTSSTHKRISLRKVKLVRPPQ [S12I] gave a protein stability index of 2.36. With YSLTTSSTHKRFSLRKVKLVRPPQ [S12F] the protein stability index was 2.17. YSLTTSSTHKRNSLRKVKLVRPPQ [S12N] gave a protein stability index of 3.16. Variant YSLTTSSTHKRGSLRKVKLVRPPQ [S12G] has a protein stability index of 3.36. YSLTTSSTHKRSSLKKVKLVRPPQ [R15K] showed a protein stability index of 3.24. With YSLTTSSTHKRSSLLKVKLVRPPQ [R15L] the protein stability index was 2.44. In the case of YSLTTSSTHKRSSLTKVKLVRPPQ [R15T], the protein stability index is reported as 3.02. Variant YSLTTSSTHKRSSLEKVKLVRPPQ [R15E] has a protein stability index of 3.25. Work on YSLTTSSTHKRSSLGKVKLVRPPQ [R15G] yielded a protein stability index of 2.97. With YSLTTSSTHKRSSLSKVKLVRPPQ [R15S] the protein stability index was 2.95. Work on YSLTTSSTHKRSSLCKVKLVRPPQ [R15C] yielded a protein stability index of 2.81. In the case of YSLTTSSTHKRSSLNKVKLVRPPQ [R15N], the protein stability index is reported as 2.94. Variant YSLTTSSTHKRSSLYKVKLVRPPQ [R15Y] has a protein stability index of 1.86. YSLTTSSTHKRSSLHKVKLVRPPQ [R15H] showed a protein stability index of 2.51. For YSLTTSSTHKRSSLIKVKLVRPPQ [R15I], the protein stability index was 2.13. For YSLTTSSTHKRSSLMKVKLVRPPQ [R15M], the protein stability index was 2.46. In the case of YSLTTSSTHKRSSLDKVKLVRPPQ [R15D], the protein stability index is reported as 3.54. In the case of YSLTTSSTHKRSSLQKVKLVRPPQ [R15Q], the protein stability index is reported as 3.35. YSLTTSSTHKRSSLPKVKLVRPPQ [R15P] gave a protein stability index of 3.47. Work on YSLTTSSTHKRSSLFKVKLVRPPQ [R15F] yielded a protein stability index of 1.94. For YSLTTSSTHKRSSLWKVKLVRPPQ [R15W], the protein stability index was 2.12. With YSLTTSSTHKRSSLVKVKLVRPPQ [R15V] the protein stability index was 2.48. YSLTTSSTHKRSSLAKVKLVRPPQ [R15A] gave a protein stability index of 2.49. Variant YSLTTSSEHKRSSLRKVKLVRPPQ [T8E] has a protein stability index of 3.51. Variant YSLTTSSSHKRSSLRKVKLVRPPQ [T8S] has a protein stability index of 2.89. For YSLTTSSYHKRSSLRKVKLVRPPQ [T8Y], the protein stability index was 3. Variant YSLTTSSWHKRSSLRKVKLVRPPQ [T8W] has a protein stability index of 2.49. Work on YSLTTSSGHKRSSLRKVKLVRPPQ [T8G] yielded a protein stability index of 3.71. YSLTTSSNHKRSSLRKVKLVRPPQ [T8N] showed a protein stability index of 3.4. Work on YSLTTSSIHKRSSLRKVKLVRPPQ [T8I] yielded a protein stability index of 2.63. With YSLTTSSHHKRSSLRKVKLVRPPQ [T8H] the protein stability index was 2.76. YSLTTSSAHKRSSLRKVKLVRPPQ [T8A] gave a protein stability index of 2.82. Work on YSLTTSSMHKRSSLRKVKLVRPPQ [T8M] yielded a protein stability index of 2.98. In the case of YSLTTSSFHKRSSLRKVKLVRPPQ [T8F], the protein stability index is reported as 2.63. For YSLTTSSKHKRSSLRKVKLVRPPQ [T8K], the protein stability index was 3.02. In the case of YSLTTSSRHKRSSLRKVKLVRPPQ [T8R], the protein stability index is reported as 2.57. YSLTTSSVHKRSSLRKVKLVRPPQ [T8V] showed a protein stability index of 2.53. YSLTTSSLHKRSSLRKVKLVRPPQ [T8L] gave a protein stability index of 2.43. In the case of YSLTTSSDHKRSSLRKVKLVRPPQ [T8D], the protein stability index is reported as 3.32. In the case of YSLTTSSQHKRSSLRKVKLVRPPQ [T8Q], the protein stability index is reported as 3.26. Work on YSLTTSSPHKRSSLRKVKLVRPPQ [T8P] yielded a protein stability index of 3.38.
